Experimental data reported in patent publication US20240417437A1 (TRUTINO BIOSCIENCES, published 2024).

Tests used:
[1] = target: T1, collagen cross-linked to agarose (Sigma); experiment: pulldown with collagen-agarose, immunoblot quantified with iBright imaging system; reference Construct B
T1 construct: also called collagen-agarose; collagen-agarose beads
Procedure: To test binding to collagen, a pulldown assay using agarose cross-linked to collagen (Sigma) was performed. IL-2 fusion proteins were incubated with collagen-agarose or control agarose beads for 18-22 hours at 4° C. with gentle rotation in 1% BSA/PBS-0.05% Tween 20. After washing, proteins bound to the beads were eluted by resuspending beads in SDS sample buffer (Life Technologies). […] Donkey anti-goat HRP-conjugated antibody was used for detection (Jackson Immuno Research, West Grove, PA), and the blot was developed using the SuperSignal West Femto Maximum sensitivity detection reagent (ThermoFisher) following the manufacturer's recommendations. Construct GG and Construct II were specifically bound by collagen-agarose beads, while no IL-2 fusion protein bound the control agarose beads.

[2] = target: fibronectin (Sigma), coated on 96-well plates; experiment: plate ELISA on coated fibronectin at pH 6, OD 450-650nm. The EC50 is printed in the plot area beside the top curve (Construct EE - pH 6), the only strongly rising curve
Procedure: A similar plate-based assay was developed to interrogate binding of IL-2 fusion variants to fibronectin. 96-well plates were coated with fibronectin (4-10 μg/mL, Sigma) or control BSA for 18-22 hours at room temperature on shaker (350 rpm). After washing, wells were blocked with 2% milk powder in PBS-0.05% Tween 20 or protein-free blocking buffer (Pierce) for 90 min, then fusion proteins were titrated in blocking buffer-0.1% Tween 20, pH 7.5 and/or pH 6, and added for 1 hour at room temperature with shaking. After washing, an anti-mouse IL-2 biotin-labelled detection antibody (JES6-5H4, ThermoFisher) or anti-human IgG HRP conjugate antibody (SouthernBiotech) was added, and binding was detected using Ultra Streptavidin HRP (ThermoFisher). The plate was developed by adding the chromogenic tetramethylbenzidine substrate (Ultra TMB, ThermoFisher). The reaction was stopped by addition of 0.5 M H₂SO₄, and the absorbance was read at 450-650 nm.

fibronectin (Sigma), coated on 96-well plates, sequence (P02751 32-2477): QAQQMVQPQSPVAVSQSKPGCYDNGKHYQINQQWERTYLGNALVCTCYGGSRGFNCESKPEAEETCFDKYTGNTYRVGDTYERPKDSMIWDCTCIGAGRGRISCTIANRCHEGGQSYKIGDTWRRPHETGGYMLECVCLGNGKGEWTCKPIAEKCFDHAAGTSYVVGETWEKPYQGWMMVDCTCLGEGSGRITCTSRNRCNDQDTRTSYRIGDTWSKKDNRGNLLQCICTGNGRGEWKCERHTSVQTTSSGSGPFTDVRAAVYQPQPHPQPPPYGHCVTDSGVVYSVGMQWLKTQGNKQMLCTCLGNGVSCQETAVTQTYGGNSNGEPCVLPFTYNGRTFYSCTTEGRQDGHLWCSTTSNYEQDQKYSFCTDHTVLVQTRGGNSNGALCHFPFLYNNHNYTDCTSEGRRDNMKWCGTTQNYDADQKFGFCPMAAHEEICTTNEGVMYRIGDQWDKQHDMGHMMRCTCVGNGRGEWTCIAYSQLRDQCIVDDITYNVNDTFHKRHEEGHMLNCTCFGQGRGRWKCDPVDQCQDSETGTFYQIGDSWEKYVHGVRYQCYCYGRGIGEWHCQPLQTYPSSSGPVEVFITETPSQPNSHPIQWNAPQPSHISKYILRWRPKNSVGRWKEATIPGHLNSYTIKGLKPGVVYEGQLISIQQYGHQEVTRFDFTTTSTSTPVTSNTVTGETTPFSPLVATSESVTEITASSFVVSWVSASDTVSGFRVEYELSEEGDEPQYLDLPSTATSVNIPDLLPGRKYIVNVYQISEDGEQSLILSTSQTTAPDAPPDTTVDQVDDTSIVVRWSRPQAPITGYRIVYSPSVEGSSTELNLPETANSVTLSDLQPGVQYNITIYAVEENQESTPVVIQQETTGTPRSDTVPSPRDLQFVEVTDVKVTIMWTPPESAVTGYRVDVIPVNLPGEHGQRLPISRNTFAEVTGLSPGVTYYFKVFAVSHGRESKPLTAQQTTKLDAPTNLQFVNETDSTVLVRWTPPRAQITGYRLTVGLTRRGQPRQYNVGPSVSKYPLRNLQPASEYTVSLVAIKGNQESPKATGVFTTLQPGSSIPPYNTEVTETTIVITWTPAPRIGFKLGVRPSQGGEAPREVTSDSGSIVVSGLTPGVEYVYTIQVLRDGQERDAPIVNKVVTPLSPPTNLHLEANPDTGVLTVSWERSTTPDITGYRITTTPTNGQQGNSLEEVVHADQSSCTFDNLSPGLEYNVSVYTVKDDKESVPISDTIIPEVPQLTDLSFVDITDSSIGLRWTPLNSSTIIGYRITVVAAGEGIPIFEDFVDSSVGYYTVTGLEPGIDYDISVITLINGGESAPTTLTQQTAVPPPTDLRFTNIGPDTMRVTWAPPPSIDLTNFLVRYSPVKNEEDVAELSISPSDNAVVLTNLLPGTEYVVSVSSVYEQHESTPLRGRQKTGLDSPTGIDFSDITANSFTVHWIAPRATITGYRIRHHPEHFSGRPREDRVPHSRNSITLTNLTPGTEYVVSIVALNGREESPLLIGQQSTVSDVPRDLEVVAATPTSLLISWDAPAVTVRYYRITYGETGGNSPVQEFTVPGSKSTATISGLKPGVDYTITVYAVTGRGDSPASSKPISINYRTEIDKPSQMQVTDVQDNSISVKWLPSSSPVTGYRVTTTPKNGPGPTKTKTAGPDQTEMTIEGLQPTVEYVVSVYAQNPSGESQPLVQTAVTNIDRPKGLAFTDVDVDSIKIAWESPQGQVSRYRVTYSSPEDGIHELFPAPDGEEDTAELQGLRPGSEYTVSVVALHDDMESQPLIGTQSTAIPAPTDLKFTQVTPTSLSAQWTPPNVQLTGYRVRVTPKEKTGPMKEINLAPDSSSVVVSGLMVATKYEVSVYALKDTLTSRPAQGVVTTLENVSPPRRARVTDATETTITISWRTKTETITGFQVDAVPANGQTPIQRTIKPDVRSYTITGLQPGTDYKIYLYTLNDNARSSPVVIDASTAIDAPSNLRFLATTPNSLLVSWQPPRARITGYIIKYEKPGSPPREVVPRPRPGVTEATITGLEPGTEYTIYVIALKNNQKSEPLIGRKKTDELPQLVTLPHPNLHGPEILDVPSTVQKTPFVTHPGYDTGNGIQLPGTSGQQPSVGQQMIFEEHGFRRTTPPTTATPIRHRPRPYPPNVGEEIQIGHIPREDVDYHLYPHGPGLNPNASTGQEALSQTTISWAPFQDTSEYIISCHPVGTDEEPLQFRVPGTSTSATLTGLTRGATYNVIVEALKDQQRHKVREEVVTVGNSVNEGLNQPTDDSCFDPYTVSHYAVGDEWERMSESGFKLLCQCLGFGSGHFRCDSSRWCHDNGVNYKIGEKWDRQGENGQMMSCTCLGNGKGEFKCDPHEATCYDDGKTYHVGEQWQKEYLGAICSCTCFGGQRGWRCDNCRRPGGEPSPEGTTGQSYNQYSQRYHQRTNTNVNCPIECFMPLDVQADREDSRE

B1: Construct II (collagen I): mIL2-LHERHLNNN(SEQ ID NO: 665)-MMPcs1-2x(G4S)-mIL2Ra(1-215)-muIgG1Fc (Fc fusion)
chain: APTSSSTSSSTAEAQQQQQQQQQQQQHLEQLLMDLQELLSRMENYRNLKLPRMLTFKFYLPKQATELKDLQCLEDELGPLRHVLDLTQSKSFQLEDAENFISNIRVTVVKLKGSDNTFECQFDDESATVVDFLRRWIAFCQSIISTSPQSLHERHLNNNGPLGVRGGGGGSGGGGSELCLYDPPEVPNATFKALSYKNGTILNCECKRGFRRLKELVYMRCLGNSWSSNCQCTSNSHDKSRKQVTAQLEHQKEQQTTTDMQKPTQSMHQENLTGHCREPPPWKHEDSKRIYHFVEGQSVHYECIPGYKALQRGPAISICKMKCGKTGWTQPQLTCVDEREHHRFLASEESQGSRNSSPESETSCPITTTDFPQPTETTAMTETFVLTMEYKGCKPCICTVPEVSSVFIFPPKPKDVLTITLTPKVTCVVVDISKDDPEVQFSWFVDDVEVHTAQTQPREEQFNSTFRSVSELPIMHQDWLNGKEFKCRVNSAAFPAPIEKTISKTKGRPKAPQVYTIPPPKEQMAKDKVSLTCMITDFFPEDITVEWQWNGQPAENYKNTQPIMDTDGSYFVYSKLNVQKSNWEAGNTFTCSVLHEGLHNHHTEKSLSHSPGK
B1 was tested, and the “fold of bound fraction over Construct B” value [1] was 1.4 fold.

B2: Construct EE (pH fibronectin): mIL2-SGG-GGWSHW(SEQ ID NO: 653)-MMPcs1-2x(G4S)-mIL2Ra(1-215)-muIgG1Fc (Fc fusion)
chain: APTSSSTSSSTAEAQQQQQQQQQQQQHLEQLLMDLQELLSRMENYRNLKLPRMLTFKFYLPKQATELKDLQCLEDELGPLRHVLDLTQSKSFQLEDAENFISNIRVTVVKLKGSDNTFECQFDDESATVVDFLRRWIAFCQSIISTSPQSGGGGWSHWGPLGVRGGGGGSGGGGSELCLYDPPEVPNATFKALSYKNGTILNCECKRGFRRLKELVYMRCLGNSWSSNCQCTSNSHDKSRKQVTAQLEHQKEQQTTTDMQKPTQSMHQENLTGHCREPPPWKHEDSKRIYHFVEGQSVHYECIPGYKALQRGPAISICKMKCGKTGWTQPQLTCVDEREHHRFLASEESQGSRNSSPESETSCPITTTDFPQPTETTAMTETFVLTMEYKGCKPCICTVPEVSSVFIFPPKPKDVLTITLTPKVTCVVVDISKDDPEVQFSWFVDDVEVHTAQTQPREEQFNSTFRSVSELPIMHQDWLNGKEFKCRVNSAAFPAPIEKTISKTKGRPKAPQVYTIPPPKEQMAKDKVSLTCMITDFFPEDITVEWQWNGQPAENYKNTQPIMDTDGSYFVYSKLNVQKSNWEAGNTFTCSVLHEGLHNHHTEKSLSHSPGK
notes: Single-chain mouse IL-2 / IL-2Ralpha / mouse IgG1 Fc fusion
In the case of B2, the EC50 [2] is reported as 1820 nM.
